Results on three compounds are retold here after US10682419B2, “Prodrugs of peptide epoxy ketone protease inhibitors” (Onyx Therapeutics, Inc., priority 2012, dated 2020).

The nature of series [1]: Conversion of PEG conjugates to drug in human plasma. The class given is in vitro ADME.
Series [2] can be described thus: Pharmacokinetic comparison of Compound A and prodrug in mouse. The class given is in vivo.

Consider `COCCOCCOCCOCCOCCOCCOCCOCCn1cc(COCCCS(=O)(=O)OCC(C)(O)C(=O)[C@H](CC(C)C)NC(=O)[C@H](Cc2ccccc2)NC(=O)[C@H](CC(C)C)NC(=O)[C@H](CCc2ccccc2)NC(=O)CN2CCOCC2)nn1` (some centres unmarked), for which, in series [1], the “Conversion to drug in Human Plasma (%) 2 min” value came to 2%, the “Conversion to drug in Human Plasma (%) 30 min” value came out at 18%, the “Conversion to drug in Human Plasma (%) 1 hr” value came to 58% and the “Conversion to drug in Human Plasma (%) 2 hr” value is 90%. Moreover, the “Conversion to drug in Human Plasma (%) 4 hr” value in series [1] is given as 80%.
With `CC(C)C[C@H](NC(=O)[C@H](CCc1ccccc1)NC(=O)CN1CCOCC1)C(=O)N[C@@H](Cc1ccccc1)C(=O)N[C@@H](CC(C)C)C(=O)[C@@]1(C)CO1` [Cmpd A, (S)-4-methyl-N—((S)-1-(((S)-4-methyl-1-((R)-2-methyloxiran-2-yl)-1-oxopentan-2-yl)amino)-1-oxo-3-phenylpropan-2-yl)-2-((S)-2-(2-morpholinoacetamido)-4-phenylbutanamido)pentanamide], the “[Cmpd A] (μM) at 1 hr” value in series [2] (time 1 hr) was found to be 0.008 µM. Also, the “[Cmpd A] (μM) at 4 hr” value in series [2] (time 4 hr, BLOQ = below level of quantitation) is recorded as “BLOQ”. The “[Cmpd A] (μM) at 6 hr” value in series [2] (time 6 hr, BLOQ = below level of quantitation) is recorded as “BLOQ”. In series [2] (time 24 hr, BLOQ = below level of quantitation), the “[Cmpd A] (μM) at 24 hr” value is on record as “BLOQ”.
Consider `COCCOCCOCCOCCOCCOCCOCCOCCn1cc(CNC(=O)c2cccc(S(=O)(=O)OCC(C)(O)C(=O)[C@H](CC(C)C)NC(=O)[C@H](Cc3ccccc3)NC(=O)[C@H](CC(C)C)NC(=O)[C@H](CCc3ccccc3)NC(=O)CN3CCOCC3)c2)nn1` (some centres unmarked), for which, in series [1], the “Conversion to drug in Human Plasma (%) 2 min” value worked out at 7%, the “Conversion to drug in Human Plasma (%) 30 min” value was found to be 63%, the “Conversion to drug in Human Plasma (%) 1 hr” value is given as 100% and the “Conversion to drug in Human Plasma (%) 2 hr” value is recorded as 95%. The “Conversion to drug in Human Plasma (%) 4 hr” value in series [1] was 80%.
